# Where a chain is given by its changes, count along the chain named.
# B1: BI-764532 (bispecific antibody, human IgG1, kappa, lambda, L234A L235A)
# chain 1: DIQMTQSPSAMSASVGDRVTITCRASQGISNYLVWFQQKPGKAPKRLIYAVSSLYSGVPSRFSGSGSGTEFTLTISSLQPEDFATYYCLQHDSYPYTFGQGTKLEIKRTVAAPSVFIFPPSDEQLKSGTASVVCLLNNFYPREAKVQWKVDNALQSGNSQESVTEQDSKDSTYSLSSTLTLSKADYEKHKVYACEVTHQGLSSPVTKSFNRGECGGGGSEGKSSGSGSESKSTEGKSSGSGSESKSTGGGGSQVQLVQSGAEVKKPGASVKVSCKASGYTFTSYYVHWVRQAPGQGLEWMVIINPGGGTTSYAQKFLGRVTMTRDTSTNTVYMELKSLRSEDTAVYYCARGEAVTGNYFYYGMDVWGQGTTVTVSSASTKGPSVFPLAPSSKSTSGGTAALGCLVKDYFPEPVTVSWNSGALTSGVHTFPAVLQSSGLYSLSSVVTVPSSSLGTQTYICNVNHKPSNTKVDKRVEPKSCDKTHTCPPCPAPEAAGGPSVFLFPPKPKDTLMISRTPEVTCVVVDVSHEDPEVKFNWYVDGVEVHNAKTKPREEQYNSTYRVVSVLTVLHQDWLNGKEYKCKVSNKALPAPIEKTISKAKGQPREPQVYTLPPSREEMTKNQVSLWCLVKGFYPSDIAVEWESNGQPENNYKTTPPVLDSDGSFFLYSKLTVDKSRWQQGNVFSCSVMHEALHNHYTQKSLSLSPG
# chain 2: EAVVTQEPSLTVSPGGTVTLTCRSSTGAVTTSNYANWVQEKPGQLPRGLIGGTNKRAPWVPARFSGSLLGGKAALTLSGAQPEDEAEYFCALWYSNLWVFGGGTKLTVLGQPKAAPSVTLFPPSSEELQANKATLVCLISDFYPGAVKVAWKADGSPVNTGVETTTPSKQSNNKYAASSYLSLTPEQWKSHRSYSCQVTHEGSTVEKTVAPAECSGGGGSEGKSSGSGSESKSTEGKSSGSGSESKSTGGGGSEVQLVESGGGLVQPGGSLKLSCAASGFTFNTYAMNWVRQAPGKGLEWVARIRSKYNNYATYYADSVKDRFTISRDDSKNTAYLQMNNLKTEDTAVYYCVRHGNFGNSYVSWFAYWGQGTLVTVSAASTKGPSVFPLAPSSKSTSGGTAALGCLVKDYFPEPVTVSWNSGALTSGVHTFPAVLQSSGLYSLSSVVTVPSSSLGTQTYICNVNHKPSNTKVDKRVEPKSCDKTHTCPPCPAPEAAGGPSVFLFPPKPKDTLMISRTPEVTCVVVDVSHEDPEVKFNWYVDGVEVHNAKTKPREEQYNSTYRVVSVLTVLHQDWLNGKEYKCKVSNKALPAPIEKTISKAKGQPREPQVYTLPPSREEMTKNQVSLSCAVKGFYPSDIAVEWESNGQPENNYKTTPPVLDSDGSFFLVSKLTVDKSRWQQGNVFSCSVMHEALHNRFTQKSLSLSPG
# B2: mAb6 (antibody, V domains shown)
# VH: EVQLQQSGPVLVKPGASVKMSCKASGYTFTDYYMNWVKQSHGKSLEWIGIINPYSGVTIYNHKFKGKATLTVDKSSNTAYMELNSLTSEDSAVYYCARQDSLLDYAMDYWGQGTSVTVSS
# VL: DILMTQSPSSMSVSLGDTVSITCHASQGISGNMGWLQQKPGKSFKGLIYHGANLEDGVPSRFSGSGSGADYSLTISSLESEDFADYYCVQYAQFPYTFGGGTKLEIK
# notes: murine hybridoma antibody (culture supernatant)
# B3: mAb110 (antibody, V domains shown)
# VH: EVQLQQSGPVLVKPGASVKMSCKTSGYTFTDYYMNWVKQSHGKSLEWIGIINPYNGGTSYTQKFKGKATLTVDKSSSTAYMELNSLTSEDSTVYFCARHFYDSSYLTYSTMDYWGQGTSVTVSS
# VL: NIVMTQSPKSMSMSVGERVTLSCKASENVGIFVSWYQQKPKQSPKLLIYGASNRYTGVPDRFTGSGSATDFTLTISSVQAEDLADYYCGQSHSYPLTFGTGTKLELK
# notes: as for B2
# B4: mAb98 (antibody, V domains shown)
# VH: EVQLVESGGGLVKPGGSLKLSCAASGFTFSDYGIHWVRQAPEKGLEWVAYISSGGYTIYYADTVKGRFTISRDNAKNTLFLQMTSLRSEDTAMYYCARGDYDDIFYTMDYWGQGTSVTVSS
# VL: DIQMTQTTSSLSASLGDRVTISCRASRDITKFLNWYQQKPDGTVKLLIYYTSRLHSGVPSRFSGSGSGTDYSLTISNLDQEDIATYFCQQGNTLPWTFGGGTKLDIK
# notes: as for B2
# B5: HJ-7 (bispecific antibody)
# chain 1: not shown
# chain 2: DIQMTQSPSSVSASVGDRVTITCRASQDIANYLSWYQQKPGKSPKLLIYGTSNLEVGVPSRFSGSRSGTDFTLTISSLQPEDFATYYCLQDKEFPRTFGGGTKVEIKGGGGSSGAPRFLTRPKASVVSVGKDATLSCQIVGNPFPQVSWEKDKQPVTAGVRFRLAQDGDLYRLKILDLQLSDSGQYVCRARNAHGEAFACLGLQVDAEA
# chain 3: EVQLVQSGAEVKKPGSSVKVSCKASGYTFSNYLIEWVRQAPGQGLEWIGVIDPGVGDTNYNENFKGRATLTADKSTSTAYIELSSLRSEDTAVYYCAREDNTGTAFDYWGQGTTVTVSSASTKGPSVFPLAPSSKSTSGGTAALGCLVKDYFPEPVTVSWNSGALTSGVHTFPAVLQSSGLYSLSSVVTVPSSSLGTQTYICNVNHKPSNTKVDKKVEPKSCDKTHTCPPCPAPEAAGGPSVFLFPPKPKDTLMISRTPEVTCVVVDVSHEDPEVKFNWYVDGVEVHNAKTKPREEQYNSTYRVVSVLTVLHQDWLNGKEYKCKVSNKALPAPIEKTISKAKGQPREPQVCTLPPSREEMTKNQVSLSCAVKGFYPSDIAVEWESNGQPENNYKTTPPVLDSDGSFFLVSKLTVDKSRWQQGNVFSCSVMHEALHNHYTQKSLSLSPGK
# chain 4: SIVMTQTPLSLSVTPGQPASISCKASQSVSSDVTWYLQKPGQSPQLLIYYVSEHYTGVPDRFSGSGYGTDFTLKISRVEAEDVGVYYCQQHHRFPLTFGQGTKLEIKRTVAAPSVFIFPPSDEQLKSGTASVVCLLNNFYPREAKVQWKVDNALQSGNSQESVTEQDSKDSTYSLSSTLTLSKADYEKHKVYACEVTHQGLSSPVTKSFNRGEC
# B6: HJ-9 (bispecific antibody)
# chain 1: not shown
# chain 2: B5 chain 2 with G108R, G109T, G110V, G111A, R121C, C137S, C188S
# chain 3: B5 chain 3
# chain 4: B5 chain 4
# B7: HJ-8 (bispecific antibody)
# chain 1: not shown
# chain 2: B5 chain 2 with G108R, G109T, G110V, G111A, C137S, C188S
# chain 3: B5 chain 3
# chain 4: B5 chain 4
# B8: HJ-10 (bispecific antibody)
# chain 1: not shown
# chain 2: B5 chain 2 with G108R, G109T, G110V, G111A
# chain 3: B5 chain 3
# chain 4: B5 chain 4
# B9: HJ-11 (bispecific antibody)
# chain 1: not shown
# chain 2: B5 chain 2 with G108R, G109T, G110V, G111A, A115C
# chain 3: B5 chain 3
# chain 4: B5 chain 4
# B10: mAb30 (antibody, V domains shown)
# VH: EVRLQQFGPVLVKPGASVKMSCKASGYTFTDYYMNWVKQSHGKSLEWIGIINPYNGDTSYNQKFRGKATLTVDKSSSTAYMELNSLTSEDSAVYYCARYHYGPHLEGYFDVWGTGTTLTVSS
# VL: DIVMTQSPKSMSMSVGERVTLSCKASENVGYVSWYQQKPEQSPKLLIYGASNRYTGVPDRFTGSGSATDFTLTISSVQAEDLADYHCGQSYSYPLTFGSGTKLEIK
# Experiments:
# human DLL3 on cells [1] = molecular target: T1, human DLL3 on cells (human, UniProt Q9NYJ7 27-618); experiment: cell-based or functional assay
# T1 sequence: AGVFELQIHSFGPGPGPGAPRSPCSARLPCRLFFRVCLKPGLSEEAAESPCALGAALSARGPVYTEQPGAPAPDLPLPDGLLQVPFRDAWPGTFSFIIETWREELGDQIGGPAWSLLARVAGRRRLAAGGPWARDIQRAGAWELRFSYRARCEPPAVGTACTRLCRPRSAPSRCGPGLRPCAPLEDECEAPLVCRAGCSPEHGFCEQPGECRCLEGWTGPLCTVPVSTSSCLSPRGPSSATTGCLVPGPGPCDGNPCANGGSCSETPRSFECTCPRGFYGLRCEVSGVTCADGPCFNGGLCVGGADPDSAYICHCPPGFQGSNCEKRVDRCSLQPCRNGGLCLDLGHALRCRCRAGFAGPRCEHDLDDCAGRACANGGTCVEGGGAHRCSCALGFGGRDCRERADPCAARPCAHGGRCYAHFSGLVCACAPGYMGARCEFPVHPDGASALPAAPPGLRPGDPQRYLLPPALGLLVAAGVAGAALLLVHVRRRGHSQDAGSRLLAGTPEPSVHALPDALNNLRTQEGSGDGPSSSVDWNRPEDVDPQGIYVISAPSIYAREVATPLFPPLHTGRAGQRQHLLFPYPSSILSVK
# [2] = molecular target: T2, monkey DLL3 protein (screening antigen) (cynomolgus monkey, UniProt Q9NYJ7 27-492 (human entry), limits assumed); experiment: ELISA, hybridoma supernatant
# T2 chain: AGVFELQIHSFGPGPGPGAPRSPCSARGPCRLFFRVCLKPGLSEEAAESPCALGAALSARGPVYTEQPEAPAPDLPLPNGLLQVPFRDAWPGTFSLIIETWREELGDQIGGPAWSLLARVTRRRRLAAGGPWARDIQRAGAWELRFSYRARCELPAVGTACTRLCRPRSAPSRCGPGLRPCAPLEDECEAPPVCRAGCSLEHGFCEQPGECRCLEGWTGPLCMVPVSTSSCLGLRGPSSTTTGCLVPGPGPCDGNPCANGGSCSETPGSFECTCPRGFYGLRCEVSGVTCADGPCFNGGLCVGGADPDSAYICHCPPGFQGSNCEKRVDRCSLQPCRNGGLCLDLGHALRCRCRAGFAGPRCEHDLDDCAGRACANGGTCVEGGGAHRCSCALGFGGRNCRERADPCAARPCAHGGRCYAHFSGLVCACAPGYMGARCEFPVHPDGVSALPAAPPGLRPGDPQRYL
# Protocol: (§1) Spleen lymphocytes and the myeloma cells, Sp2/0 cells (ATCC® CRL-8287™), were fused by following an optimized electrofusion procedure to obtain hybridoma cells. Based on the growth density of hybridoma cells, the hybridoma culture supernatant was assayed using an ELISA method with binding to DLL3 protein and a FACS method with binding to DLL3 CHO-s cells.
# human DLL3 on cells [3] = molecular target: T1, human DLL3 on cells; experiment: FACS, DLL3 CHO-s cells, hybridoma supernatant
# Protocol: as §1
# [4] = molecular target: T3, human DLL3 protein (screening antigen) (human, UniProt Q9NYJ7 27-492, limits assumed); experiment: ELISA, hybridoma supernatant
# T3 construct: Biotinylated in the phage panning
# T3 sequence: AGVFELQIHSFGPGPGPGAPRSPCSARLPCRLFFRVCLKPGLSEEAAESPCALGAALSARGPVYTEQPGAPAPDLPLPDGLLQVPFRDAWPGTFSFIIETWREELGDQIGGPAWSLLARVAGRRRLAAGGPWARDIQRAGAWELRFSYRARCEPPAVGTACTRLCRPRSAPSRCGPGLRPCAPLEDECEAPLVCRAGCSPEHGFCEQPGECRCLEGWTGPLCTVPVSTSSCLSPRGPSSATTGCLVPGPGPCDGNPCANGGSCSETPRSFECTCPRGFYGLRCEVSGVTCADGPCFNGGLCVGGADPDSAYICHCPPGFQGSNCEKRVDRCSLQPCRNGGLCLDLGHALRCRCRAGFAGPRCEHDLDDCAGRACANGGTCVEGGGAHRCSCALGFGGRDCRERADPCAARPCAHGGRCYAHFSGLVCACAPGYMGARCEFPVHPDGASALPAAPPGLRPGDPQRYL
# Protocol: as §1
# hTSLP = hTSLP (human, UniProt Q969D9 29-159); experiment: ELISA
# hIL5 = hIL5 (human, UniProt P05113 20-134); experiment: ELISA
# [5] = molecular target: T2, monkey DLL3 protein (screening antigen); experiment: phage ELISA
# [6] = molecular target: T3, human DLL3 protein (screening antigen); experiment: phage ELISA
Binder,binding result [2],EC50 (hTSLP),EC50 (hIL5),further results
B1,,,,"IC50, PBMC killing of SHP77/lucG cells (human DLL3 on cells [1]): 0.0446 nM; Imax (%), PBMC killing of SHP77/lucG cells (human DLL3 on cells [1]): 97%"
B2,binds,,,
B3,binds,,,binding result (human DLL3 on cells [3]): binds; binding result [4]: binds
B4,binds,,,
B5,,2.18 nM,17.7 nM,
B6,,3.18 nM,10.9 nM,
B7,,3.33 nM,18.7 nM,
B8,,3.17 nM,20.8 nM,
B9,,3 nM,9.46 nM,
B10,,,,binding result [5]: binds; binding result [6]: binds

# Reference: US20250376519A1 (JIANGSU HENGRUI PHARMACEUTICALS, published 2025)
